The assay deals with TERT (telomerase reverse transcriptase), catalytic subunit of telomerase (human) (UniProt O14746). The assay is described as follows: cell-based or functional assay.
TERT (telomerase reverse transcriptase), catalytic subunit of telomerase (human), sequence (O14746 whole entry): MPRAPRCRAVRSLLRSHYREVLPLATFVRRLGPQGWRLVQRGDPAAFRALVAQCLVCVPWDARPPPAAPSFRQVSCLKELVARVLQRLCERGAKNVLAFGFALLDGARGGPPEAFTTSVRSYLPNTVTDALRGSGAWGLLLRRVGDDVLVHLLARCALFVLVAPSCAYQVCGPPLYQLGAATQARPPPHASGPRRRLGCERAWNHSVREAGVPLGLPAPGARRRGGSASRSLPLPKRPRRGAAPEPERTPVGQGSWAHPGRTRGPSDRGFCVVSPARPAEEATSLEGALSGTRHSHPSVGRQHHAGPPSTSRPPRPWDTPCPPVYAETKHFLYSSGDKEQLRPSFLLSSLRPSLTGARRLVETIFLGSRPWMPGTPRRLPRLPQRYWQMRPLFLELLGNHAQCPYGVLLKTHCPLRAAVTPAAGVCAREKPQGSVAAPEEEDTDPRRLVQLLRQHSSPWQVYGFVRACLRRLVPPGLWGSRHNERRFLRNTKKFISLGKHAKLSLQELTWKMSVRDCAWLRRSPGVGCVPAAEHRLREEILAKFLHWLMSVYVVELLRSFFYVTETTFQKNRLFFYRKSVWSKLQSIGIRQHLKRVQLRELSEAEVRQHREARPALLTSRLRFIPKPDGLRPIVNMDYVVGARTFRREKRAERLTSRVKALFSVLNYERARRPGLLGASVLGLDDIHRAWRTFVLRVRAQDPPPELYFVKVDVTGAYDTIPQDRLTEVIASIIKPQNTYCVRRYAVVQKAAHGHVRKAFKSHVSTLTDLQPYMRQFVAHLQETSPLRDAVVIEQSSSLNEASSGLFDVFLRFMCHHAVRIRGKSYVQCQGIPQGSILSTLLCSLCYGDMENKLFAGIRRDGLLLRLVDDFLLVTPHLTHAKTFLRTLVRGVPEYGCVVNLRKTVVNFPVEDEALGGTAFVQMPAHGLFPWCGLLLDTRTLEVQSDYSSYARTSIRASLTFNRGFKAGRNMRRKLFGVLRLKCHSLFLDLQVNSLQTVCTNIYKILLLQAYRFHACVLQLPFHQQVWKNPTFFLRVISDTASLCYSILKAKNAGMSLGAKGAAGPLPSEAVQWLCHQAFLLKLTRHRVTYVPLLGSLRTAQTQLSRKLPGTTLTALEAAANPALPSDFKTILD

On to “N-terminal HA-tagged inactive MAPKAPK3 (T201A/T313A) (from UniProt Q16644 1-382) (enzyme)”, for which the intracellular telomerase activity (TRAP method) in HEK293T cells was determined as 0.7 fold. On to “N-terminal HA-tagged active MAPKAPK3 (T201E/T313E) (from UniProt Q16644 1-382) (enzyme)”, for which the intracellular telomerase activity (TRAP method) in HEK293T cells against the negative control vector was 1.4 fold. As for “GST fusion active MAPKAPK3 (T201E/T313E) (from UniProt Q16644 1-382) (enzyme)”, the telomerase activity (TRAP method) in dephosphorylated HEK293 cell nuclear extract after phosphorylation reaction came to 1.5 fold.

For the origin of these results see patent US20070105796A1.
